Consider 2 substances from article PMC6856630.

What all share (test): BLI; Octet RED384; biotinylated neurexin LNS2 on streptavidin tips, Nxph in solution; 25°C, PBS pH 7.4, 50 nM TCEP, 1% BSA; global fit, double reference subtraction
Assay [1] concerns the target Nrxn1 LNS2^SS2AB+, AviTag-His, biotinylated (BLI) (mouse).
The target in assay [2] is Nrxn3 LNS2^SS2−, AviTag-His, biotinylated (BLI) (mouse).
The target of assay [3] is Nrxn1 LNS2^SS2AB+ (I401Q), AviTag-His, biotinylated (BLI) (mouse).
The target in assay [4] is Nrxn2 LNS2^SS2− (I401Q), AviTag-His, biotinylated (BLI) (mouse).
Assay [5] addresses Nrxn2 LNS2^SS2−, AviTag-His, biotinylated (BLI) (mouse).
In assay [6] the target is Nrxn3 LNS2^SS2− (I401Q), AviTag-His, biotinylated (BLI) (mouse).

The Kd is the concentration at which binding is half-saturated. A lower Kd goes with higher affinity. Usually koff stands for the rate constant with which the complex falls apart. The low end stands for slow dissociation, the high end for fast dissociation. Usually kon stands for the second-order rate constant of association.

Sequence of Nxph3-2XFLAG-His (rat neurexophilin-3, 50-252) (Q9Z2N5 50-252): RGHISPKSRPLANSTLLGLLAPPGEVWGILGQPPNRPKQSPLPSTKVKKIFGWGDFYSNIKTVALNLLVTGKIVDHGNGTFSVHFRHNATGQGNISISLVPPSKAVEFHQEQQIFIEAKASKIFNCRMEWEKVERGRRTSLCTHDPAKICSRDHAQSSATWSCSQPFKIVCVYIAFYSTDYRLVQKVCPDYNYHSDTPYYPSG
Sequence of Nxph1-2XFLAG-His (mature rat neurexophilin-1, 118-271, glycosylated) (Q63366 118-271): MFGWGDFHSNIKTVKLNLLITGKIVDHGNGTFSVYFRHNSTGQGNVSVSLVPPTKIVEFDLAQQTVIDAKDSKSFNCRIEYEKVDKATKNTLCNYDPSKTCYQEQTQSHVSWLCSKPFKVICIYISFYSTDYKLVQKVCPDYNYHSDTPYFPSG

For the substance “Nxph1-2XFLAG-His (mature rat neurexophilin-1, 118-271, glycosylated) (from UniProt Q63366 118-271) (ligand)”, the dissociation constant Kd in assay [1] came to 0.0433 µM; in assay [2] it was 0.207 µM; in assay [3], 0.499 µM; in assay [4] it was 39.3 µM; in assay [5], 0.124 µM; in assay [6], 1940 µM. Further, the koff in assay [1] turned out to be 9.4e-05 s⁻¹; in assay [2], 9.2e-05 s⁻¹; in assay [3] it was 0.00034 s⁻¹; in assay [4] it was 0.0025 s⁻¹; in assay [5], 6.9e-05 s⁻¹; in assay [6], 0.012 s⁻¹. In addition, the on-rate (kon) is 2170 M⁻¹ s⁻¹ in assay [1]; 444 M⁻¹ s⁻¹ in assay [2]; 674 M⁻¹ s⁻¹ in assay [3]; 381 M⁻¹ s⁻¹ in assay [4]; 554 M⁻¹ s⁻¹ in assay [5]; 10.5 M⁻¹ s⁻¹ in assay [6].
With “Nxph3-2XFLAG-His (rat neurexophilin-3, 50-252) (from UniProt Q9Z2N5 50-252) (ligand)”, the dissociation constant (Kd) stood at 0.177 µM in assay [2], 1.31 µM in assay [4], 0.212 µM in assay [5] and 3.5 µM in assay [6]. The dissociation rate constant (koff) in assay [2] worked out at 3.1e-05 s⁻¹; in assay [4], 0.00044 s⁻¹; in assay [5] it was 6.7e-05 s⁻¹; in assay [6] it was 0.00053 s⁻¹. Besides, the kon in assay [2] was 178 M⁻¹ s⁻¹; in assay [4], 350 M⁻¹ s⁻¹; in assay [5], 302 M⁻¹ s⁻¹; in assay [6], 153 M⁻¹ s⁻¹.
